Assay results taken from the supplement of paper PMC9732359.
± gives the uncertainty stated by the source.

Experiment: protein stability index of a GFP-peptide fusion (yeast GPS) (PSI 1-4); higher = more stable; sorted into four equal gates, so the index is relative within each strain
Settings: ubr1∆
Procedure, shortened: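 Mid-log yeast cultures in leucine-free medium, carrying a pooled plasmid library, were sorted into four equal gates by their GFP/Cherry fluorescence ratio. Each plasmid expressed Cherry along with GFP fused upstream of a tiled 17-residue yeast protein peptide. Plasmids recovered from each gate were PCR-amplified and Illumina-sequenced, with reads assigned to strains by barcodes. The protein stability index was obtained by summing each gate's read frequency weighted by its gate number.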
In the case of SKKQRNNGSKDHGDGIL [RPN9], the protein stability index is reported as 2.78 ± 0.053. In the case of SKKTSPKATSSAGAVFK [YOR098C/NUP1], the protein stability index is reported as 2.61 ± 0.046. SKLGKNLQTVHFGHCFN [GRR1] showed a protein stability index of 2.25 ± 0.11. Sequence SKNAQFICTTFRTDMLQ [SMC3] has a protein stability index of 1.05 ± 0.073. In the case of SKPVLIVGQKNLNRAFN [DIS3], the protein stability index is reported as 2.8 ± 0.088. SKQDLIHSLIPVAKWFV [SIN4] showed a protein stability index of 2.78 ± 0.08. Sequence SKQQAKGAFQKVAATSR [RPL24A] has a protein stability index of 2.8 ± 0.038. SKRWAQRTLSKSFYSTA [CYT1] gave a protein stability index of 2.22 ± 0.06. Sequence SKRYIPSVNDFVIGVII [RRP40] has a protein stability index of 2.73 ± 0.054. SKSNLIHNYDSKKSTIT [RGR1] gave a protein stability index of 3.11 ± 0.038. SKSVPTPSLPIAPPVAP [SNF5] showed a protein stability index of 2.55 ± 0.061. For SLAKSSALWSSRKGIAF [ECM29], the protein stability index was 1.59 ± 0.15. SLASCLRSTEYSKSFEQ [POP1] gave a protein stability index of 2.76 ± 0.12. SLDDNSTSLEKQINSIK [YJL041W/NSP1] showed a protein stability index of 2.96 ± 0.048. Work on SLDEILLPANLLSLNSV [SRP68] yielded a protein stability index of 3.08 ± 0.031. SLDLNNLELGGLNMDFL [PGD1] gave a protein stability index of 2.74 ± 0.11. For SLELQSFQKIPLSRINE [YML103C/NUP188], the protein stability index was 2.88 ± 0.12. SLFELIVPIFQLISAVL [YJL039C/NUP192] showed a protein stability index of 1.85 ± 0.037. Sequence SLILKESGSTPISISNA [YAR002W/NUP60] has a protein stability index of 1.23 ± 0.1. Sequence SLKNTDALLNSTTEHIN [YJL039C/NUP192] has a protein stability index of 2.42 ± 0.16. SLLDAEEERRKKRESGV [SNF2] gave a protein stability index of 3.47 ± 0.047. For SLLGGFDENIARDIISH [PCI8], the protein stability index was 2.82 ± 0.046. SLLLSSVKESTGMSSMS [SRB4] showed a protein stability index of 1.22 ± 0.13. SLQDRSSLVRRNSVKLL [YCS4] gave a protein stability index of 1.56 ± 0.027. In the case of SLQRSKSSFVKESAVIS [SMC1], the protein stability index is reported as 2.29 ± 0.039. With SLQYINIRGNTIRQIIL [SMD1] the protein stability index was 2.94 ± 0.065. With SLRILAKLSERSNGSVA [YJL039C/NUP192] the protein stability index was 2.42 ± 0.043. With SLSDEVMRNEIRITSLQ [SIR4] the protein stability index was 2.52 ± 0.077. Work on SLSNPNSTATMQHNPLA [PGD1] yielded a protein stability index of 2.967 ± 0.029. With SLTAEAMTAAEHGLHAP [CYT1] the protein stability index was 3.1 ± 0.045. SLTPTQSDSAKVEIKKV [PRP28] gave a protein stability index of 3.1 ± 0.06. Sequence SLTTVWAEHLSDEVKRR [RPL3] has a protein stability index of 3 ± 0.18. For SLVNSYIIDSPQPSSIN [COB], the protein stability index was 1.32 ± 0.081. Sequence SLYPPPPPYVKFFTQSN [MED7] has a protein stability index of 2.35 ± 0.031. For SMFSGLDSTGFDSTAFN [MED2], the protein stability index was 3.104 ± 0.03. SMINNSNQAVGQTWNFP [SRB8] gave a protein stability index of 2.74 ± 0.12. In the case of SMKANTSTNPNGLGTSH [ARP7], the protein stability index is reported as 3.27 ± 0.075. In the case of SNDFEEGSTIRYLAVTL [YMR129W/POM152], the protein stability index is reported as 2.26 ± 0.053. SNDKVVEWINPSRRERR [ISW2] showed a protein stability index of 3.34 ± 0.15. For SNDTTAFNDSCVNLSLF [SRB8], the protein stability index was 2.34 ± 0.035. In the case of SNFTSIIGPNGSGKSNM [SMC1], the protein stability index is reported as 3.46 ± 0.093. In the case of SNIELAFSSVEHIIRDV [COB], the protein stability index is reported as 2.73 ± 0.11. Sequence SNIPNLLRNLESKMRQQ [YDL088C/ASM4] has a protein stability index of 3.07 ± 0.062. Work on SNIQRNVLFLRLFNNVK [SRP72] yielded a protein stability index of 1.83 ± 0.05. SNTNDNISIITLELESF [RGR1] showed a protein stability index of 2.32 ± 0.11. In the case of SNTTTQIQFTPLIKKIK [SMC3], the protein stability index is reported as 2.37 ± 0.07. Sequence SNVNSDIYFKLKKLEKE [RPT3] has a protein stability index of 3.03 ± 0.072. SNYAASNSMDRSSSASN [SWI1] gave a protein stability index of 2.84 ± 0.093. For SPELKADLRPLQIKSIR [RPS7B], the protein stability index was 2.98 ± 0.091. SPFGAYGEAPTSPGFGV [RPO21] showed a protein stability index of 3.17 ± 0.034. SPIFEVLSDDAKKLSSF [ARP9] showed a protein stability index of 3 ± 0.069. SPLQKEEALNFDISMAD [SSN2] gave a protein stability index of 3.25 ± 0.058. Sequence SPLYMDTETFDTVNSAL [YML103C/NUP188] has a protein stability index of 3.21 ± 0.058. Work on SPMGAQPSYNSAIIENA [GAL11] yielded a protein stability index of 2.73 ± 0.045. Work on SPNFKNYLKYLEYWCNP [SOH1] yielded a protein stability index of 2.71 ± 0.06. In the case of SPRFNVKIGDIEKWTAN [RPS22A], the protein stability index is reported as 3.34 ± 0.073. SPTINRANVYVGFLVQL [PRP8] gave a protein stability index of 2.1 ± 0.063. With SPYGNLQNDLIHKIQND [RPN5] the protein stability index was 2.56 ± 0.058. SQFCYVSDDESNGEVLE [RPN14] showed a protein stability index of 3.09 ± 0.1. For SQIFDQLKDMQTIEMIT [SRB8], the protein stability index was 2.85 ± 0.043. In the case of SQKTKTIQSDLNLSLHK [SMC2], the protein stability index is reported as 2.67 ± 0.03. Sequence SQLDLFLRTMKLTSEET [GRR1] has a protein stability index of 3.09 ± 0.043. SQLNIQLSQDEHSQVEQ [SRP72] gave a protein stability index of 3.05 ± 0.066. SQLPITPMTRISELPPQ [YGL172W/NUP49] gave a protein stability index of 2.71 ± 0.041. SQPNNTPSFSFGKTTAN [YLR335W/NUP2] showed a protein stability index of 2.87 ± 0.048. Work on SQSQQKLLKEKVKLFHG [MED2] yielded a protein stability index of 2.81 ± 0.08. Work on SQVDPITLFVLVSVVEA [FAS2] yielded a protein stability index of 1.45 ± 0.072. With SQVFGVARIYASFNDTF [RPS14A] the protein stability index was 2.38 ± 0.056. Sequence SQVLDLAKKIAPGKVEL [SMC2] has a protein stability index of 2.84 ± 0.2. SREAVRHFGMGPHKGKA [RPL18A] gave a protein stability index of 3.66 ± 0.16. With SRKETSRTATWLKNKFA [BRR2] the protein stability index was 1.49 ± 0.063. For SRLKALNLQFKAKVDDL [YLR335W/NUP2], the protein stability index was 3.11 ± 0.069. In the case of SRSTDNFHNSKKRMNSN [RRI1], the protein stability index is reported as 2.61 ± 0.081. In the case of SRTLILSILNEIKKVTQ [SIN4], the protein stability index is reported as 2.82 ± 0.084. SRYEPKVFDCGDNIVMS [PRE7] gave a protein stability index of 2.06 ± 0.23. SSDAFEVDVCDKCGLMG [RET1] showed a protein stability index of 2.12 ± 0.11. SSDGQLKKFRESLVHSA [BRR2] showed a protein stability index of 3.33 ± 0.13. In the case of SSEYETINISLSFSWAI [NUT1], the protein stability index is reported as 2.4 ± 0.13. SSFEKFNDSQAIVCYIL [SRP72] gave a protein stability index of 2.63 ± 0.031. SSHAKGIVLEKLGIESK [RPS23A] gave a protein stability index of 3.17 ± 0.17. In the case of SSIDRGFGRCETRRKTT [RET1], the protein stability index is reported as 2.52 ± 0.05. In the case of SSIENNINNNINSTKNG [MED2], the protein stability index is reported as 3.17 ± 0.063. Work on SSKKVFSSNLSYANHLE [YOR098C/NUP1] yielded a protein stability index of 2.48 ± 0.047. Sequence SSKLVDVYTLPSYVHFK [YML103C/NUP188] has a protein stability index of 1.46 ± 0.036. For SSKPAFNLISNAGTEKE [YLR335W/NUP2], the protein stability index was 3.07 ± 0.061. With SSLKESSPDTMKLTDLL [SNF12] the protein stability index was 3.1 ± 0.076. With SSLMNGLGYVFEFQYLT [SRB5] the protein stability index was 3.19 ± 0.073. SSNILEDILYYSTCPSE [SRB8] showed a protein stability index of 2.54 ± 0.062. SSQNNSELAPIEEHPTV [IRR1] gave a protein stability index of 3.14 ± 0.17. SSSIKSTGPTGAVSLNP [RRP4] showed a protein stability index of 3.151 ± 0.031. Sequence SSSKQQSRLFINELVLE [SMC4] has a protein stability index of 3.05 ± 0.085. Work on SSSKSMINDENYIINDI [SRB8] yielded a protein stability index of 2.83 ± 0.04. SSSNGGGSAKPSLKFKP [RPC53] showed a protein stability index of 3.34 ± 0.091. SSSSDIIVPDLIELKSD [YML103C/NUP188] gave a protein stability index of 2.7 ± 0.07. In the case of SSSTQNVFVILMDKCLP [DIS3], the protein stability index is reported as 1.95 ± 0.043. Sequence SSTPKFTKKPVTPNDKI [SIR4] has a protein stability index of 3.08 ± 0.054. STAFVPTIEYVQCPTVI [ARP9] gave a protein stability index of 1.88 ± 0.052. STCIVSLIRNNLHAEGW [ECM29] gave a protein stability index of 1.64 ± 0.067. STLTLSDSEDSDAKEQH [ESC2] showed a protein stability index of 1.06 ± 0.13. Work on STRASTVPNLPTTMVTN [ISW2] yielded a protein stability index of 2.38 ± 0.047. With STTAALQSISSLTISLY [RPN7] the protein stability index was 2.12 ± 0.047. In the case of STTTSLHVPNLQPPKTS [SMC4], the protein stability index is reported as 1.93 ± 0.027.
